# From US20250084155A1 (University of Texas, published 2025)
# Substitutions are numbered along the chain they refer to.
# B1: h77A-1 (antibody, V domains shown)
# VH: QIQLVQSGAEVKKPGASVKVSCKASGYTFTNYGMNWVRQAPGQGLEWMGWINTYTGEPTYADDFKGRFTFTTDTSTSTAYMELRSLRSDDTAVYFCARYDHAMDYWGQGTLVTVSS
# VL: EIVLTQSPDSLAVSLGERATINCKSSQSLLNSGTRKNYLAWYQQKAGQSPKLLIYWTSTRESGVPDRFSGSGSGTDFTLTIDSLQAEDVAVYYCKQSYTLYTFGGGTKVEIK
# notes: also called hVH-1 + hVL-1
# B2: h77A-1.59 (antibody, V domains shown)
# VH: B1 VH with A9P, A61G, A97G
# VL: B1 VL with S83R
# notes: captured by anti-human Fc
# B3: h77A-1.71 (antibody, V domains shown)
# VH: B1 VH with A9S, E82D
# VL: B1 VL with A12S, N22K, A86T
# notes: captured by anti-human Fc
# B4: h77A-1.14 (antibody, V domains shown)
# VH: B1 VH with A61T
# VL: B1 VL
# notes: captured by anti-human Fc
# B5: h77A-1.30 (antibody, V domains shown)
# VH: B1 VH with L83V
# VL: B1 VL with L53I
# notes: captured by anti-human Fc
# B6: h77A-1.8 (antibody, V domains shown)
# VH: B1 VH
# VL: B1 VL with N22K
# notes: captured by anti-human Fc
# B7: h77A-1.18 (antibody, V domains shown)
# VH: B1 VH with S77R
# VL: B1 VL with L53V
# notes: captured by anti-human Fc
# B8: h77A-1.12 (antibody, V domains shown)
# VH: B1 VH
# VL: B1 VL with L30F
# notes: captured by anti-human Fc
# B9: h77A-1.1 (antibody, V domains shown)
# VH: B1 VH with N31K
# VL: B1 VL
# notes: captured by anti-human Fc
# B10: h77A-1.22 (antibody, V domains shown)
# VH: B1 VH with A61S
# VL: B1 VL with L30F
# notes: captured by anti-human Fc
# B11: h77A-1.17 (antibody, V domains shown)
# VH: B1 VH with N31K, A102S
# VL: B1 VL
# notes: captured by anti-human Fc
# B12: h77A-1.94 (antibody, V domains shown)
# VH: B1 VH with A61T
# VL: B1 VL with L30F, L53I, G70A, T80S, S83R
# notes: captured by anti-human Fc
# B13: h77A-1.75 (antibody, V domains shown)
# VH: B1 VH with A9V, A61S, L83V
# VL: B1 VL with L30F, T80S
# notes: captured by anti-human Fc
# B14: h77A-1.10 (antibody, V domains shown)
# VH: B1 VH with A9D
# VL: B1 VL
# notes: captured by anti-human Fc
# B15: h77A-1.46 (antibody, V domains shown)
# VH: B1 VH with A9V
# VL: B1 VL with N22K, Q44K
# notes: captured by anti-human Fc
# B16: h77A-1.27 (antibody, V domains shown)
# VH: B1 VH with A61T
# VL: B1 VL with A12T
# notes: captured by anti-human Fc
# B17: h77A-1.19 (antibody, V domains shown)
# VH: B1 VH with A61V, E82D
# VL: B1 VL
# notes: captured by anti-human Fc
# B18: h77A-1.16 (antibody, V domains shown)
# VH: B1 VH with N31K
# VL: B1 VL with N22K
# notes: captured by anti-human Fc
# B19: h77A-1.74 (antibody, V domains shown)
# VH: B1 VH with A9P, S77T, A79G
# VL: B1 VL with N22K, V91I
# notes: captured by anti-human Fc
# B20: h77A-1.61 (antibody, V domains shown)
# VH: B1 VH with T110S
# VL: B1 VL with Q44K, A46S, T80S
# notes: captured by anti-human Fc
# B21: h77A-1.6 (antibody, V domains shown)
# VH: B1 VH with S77R
# VL: B1 VL
# notes: captured by anti-human Fc
# B22: chimeric 77A with a human IgG2 Fc domain (antibody, V domains shown)
# VH: QIQLVQSGPELKKPGETVKISCKASGYTFTNYGMNWVKQAPGKGLKWMGWINTYTGEPTYADDFKGRFAFSLETSATTAYLQINNLKNEDTATYFCARYDHAMDYWGQGTSVTVSS
# VL: DIVMSQSPSSLAVSAGEKVTMSCKSSQSLLNSGTRKNYLAWYQQKPGQSPKLLIYWTSTRESGVPDRFTGSGSGTDFTLTINSVQAEDLAVYYCKQSYTLYTFGGGTKLEIK
# notes: also called Chimera IgG2; IgG2 Chimera
# Target: T1, HSP70 (human HSP70; the antigen of the binning, humanization and variant binding assays) (human, UniProt P0DMV8 1-641, limits assumed)
# T1 construct: also called hu HSP70
# Assay: BLI, anti-human Fc capture, antigen dilution series, 1:1 fit
# Procedure: (§1) Further kinetics assays were conducted for select antibody variants. Assays were performed as follows. Antibody variants were immobilized using anti-human Fc onto the surface of a series of biosensors. Antigen was passed over the surface to generate a binding response. Binding data for the antibody: antigen interactions were collected at 25° C. on the biosensors. A dilution series of the antigen was used in the association step, in order to fit results globally and get the best values for ka, kd, and KD. The response data for the binding of antigen to the surface immobilized antibody were fitted to a 1:1 binding model.
# T1 sequence (P0DMV8 whole entry, change not shown): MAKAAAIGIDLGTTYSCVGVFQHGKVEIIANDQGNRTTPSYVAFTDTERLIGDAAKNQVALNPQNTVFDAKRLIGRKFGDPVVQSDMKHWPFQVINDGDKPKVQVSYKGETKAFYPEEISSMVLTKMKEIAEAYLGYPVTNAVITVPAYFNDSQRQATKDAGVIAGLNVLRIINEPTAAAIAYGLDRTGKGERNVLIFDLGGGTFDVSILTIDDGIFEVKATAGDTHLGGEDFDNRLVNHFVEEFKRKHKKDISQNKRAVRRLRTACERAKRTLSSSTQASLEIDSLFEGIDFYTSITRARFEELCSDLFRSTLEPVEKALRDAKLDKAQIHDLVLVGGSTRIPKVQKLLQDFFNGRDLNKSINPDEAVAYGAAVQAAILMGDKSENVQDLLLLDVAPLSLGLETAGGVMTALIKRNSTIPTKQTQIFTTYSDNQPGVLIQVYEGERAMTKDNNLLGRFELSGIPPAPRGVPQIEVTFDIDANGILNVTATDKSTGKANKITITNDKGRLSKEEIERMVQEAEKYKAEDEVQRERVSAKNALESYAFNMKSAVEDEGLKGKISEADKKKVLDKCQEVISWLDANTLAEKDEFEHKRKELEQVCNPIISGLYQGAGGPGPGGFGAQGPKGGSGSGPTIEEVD
Kd,koff,kon,Binder
2.39 nM,0.000131 s⁻¹,54700 M⁻¹ s⁻¹,B1
2.93 nM,0.00012 s⁻¹,40800 M⁻¹ s⁻¹,B2
2.51 nM,0.000123 s⁻¹,49000 M⁻¹ s⁻¹,B3
1.97 nM,0.000124 s⁻¹,63100 M⁻¹ s⁻¹,B4
1.93 nM,0.000109 s⁻¹,56700 M⁻¹ s⁻¹,B5
1.35 nM,7.42e-05 s⁻¹,54800 M⁻¹ s⁻¹,B6
1.44 nM,9.1e-05 s⁻¹,63200 M⁻¹ s⁻¹,B7
1.43 nM,7.37e-05 s⁻¹,51700 M⁻¹ s⁻¹,B8
0.69 nM,6.11e-05 s⁻¹,88500 M⁻¹ s⁻¹,B9
1.14 nM,7.64e-05 s⁻¹,66900 M⁻¹ s⁻¹,B10
1.51 nM,9.24e-05 s⁻¹,61400 M⁻¹ s⁻¹,B11
1.85 nM,0.000111 s⁻¹,59900 M⁻¹ s⁻¹,B12
0.28 nM,2.43e-05 s⁻¹,88100 M⁻¹ s⁻¹,B13
2.48 nM,0.000145 s⁻¹,58400 M⁻¹ s⁻¹,B14
2.24 nM,0.000123 s⁻¹,54800 M⁻¹ s⁻¹,B15
1.41 nM,0.000108 s⁻¹,76400 M⁻¹ s⁻¹,B16
1.26 nM,0.000111 s⁻¹,88500 M⁻¹ s⁻¹,B17
1.27 nM,6.84e-05 s⁻¹,54000 M⁻¹ s⁻¹,B18
1.61 nM,0.000125 s⁻¹,77800 M⁻¹ s⁻¹,B19
2.91 nM,0.000123 s⁻¹,42100 M⁻¹ s⁻¹,B20
2.11 nM,0.000114 s⁻¹,54200 M⁻¹ s⁻¹,B21

# Target: T1, HSP70 (human HSP70; the antigen of the …)
# Assay: BLI, anti-human Fc capture, antigen 100 nM
# Procedure: Binding assays were performed as follows. Antibody variants were immobilized using anti-human Fc onto the surface of a series of biosensors at […]. Antigen, at 100 nM, was passed over the surface to generate a binding response. Binding data for the antibody:antigen interactions were collected at 25° C. on the biosensors. In Table 14, X=610 represents captured antigen value (nM) at the beginning of the dissociation phase (measured at 610 seconds after the biosensor was initially contacted with antigen) and X=1495 represents captured antigen value (nM) at the end of the dissociation phase (measured at 1495 seconds after the biosensor was initially contacted with antigen). In Table 14, antibodies with an X=610 value greater than 0.2 and a % dissociation less than 10% are shown in bold.
row,% Diss,Binder
1,7.63%,B1
2,9.8%,B2
3,7.93%,B3
4,7.88%,B4
5,5.1%,B5
6,8.62%,B6
7,7.15%,B7
8,4.74%,B8
9,3.88%,B9
10,6.5%,B10
11,7.04%,B11
12,5.24%,B12
13,5.34%,B13
14,8.76%,B14
15,6.22%,B15
16,6.74%,B16
17,8.73%,B17
18,3.25%,B18
19,9.07%,B19
20,6.66%,B20
21,6.58%,B21

# Target: T1, HSP70 (human HSP70; the antigen of the …)
# Assay: BLI, anti-human Fc capture, steady state
# Procedure: as §1
row,KD Steady State,Binder
1,1.2 nM,B1
2,0.74 nM,B2
3,1.3 nM,B3
4,0.77 nM,B4
5,0.86 nM,B5
6,0.31 nM,B6
7,0.81 nM,B7
8,1.1 nM,B8
9,0.032 nM,B9
10,0.81 nM,B10
11,1.3 nM,B11
12,1.3 nM,B12
13,0.023 nM,B13
14,2.6 nM,B14
15,1.2 nM,B15
16,0.89 nM,B16
17,1.2 nM,B17
18,1.3 nM,B18
19,1.7 nM,B19
20,2.1 nM,B20
21,1.8 nM,B21

# Target: T1, HSP70 (human HSP70; the antigen of the …)
# Assay: BLI, antibody on sensor
# Procedure: Humanized variants were characterized for binding using biolayer interferometry (BLI). Chimeric antibodies including the murine 77A antigen binding region and human Fe regions were also tested. Antibodies and reagents were diluted out onto microwell plates and loaded into the instrument. Diluted antibodies were first immobilized onto dip-and-read sensors, and then measurements for baselines were acquired. Subsequently, the sensors were dipped into wells containing the antigen in solution, or buffer alone. The change in number of molecules bound to the sensor was quantified by measurement of the shift in the interference pattern of light during each step of the protocol. Mathematical modeling was performed based on those values and the concentrations of reagents used in the assay and used to calculate kinetics values.
Kd,koff,kon,Binder
2.61 nM,0.000173 s⁻¹,66200 M⁻¹ s⁻¹,B1
1.52 nM,0.000112 s⁻¹,73700 M⁻¹ s⁻¹,B22
